US20190225669A1 (ACCELERON PHARMA, published 2019)
Like-named read-outs stand apart in the source and are kept apart here.

T1: ActRIIB-Fc homodimer (UniProt Q13705 19-137)
T1 construct: extracellular domain; also called ActRIIB homodimer
T1 sequence (looked up): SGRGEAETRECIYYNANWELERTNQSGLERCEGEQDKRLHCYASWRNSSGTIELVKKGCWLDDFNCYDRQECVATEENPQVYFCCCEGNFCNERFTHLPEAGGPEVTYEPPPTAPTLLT

T2: GDF8 (UniProt O14793 267-375)
T2 construct: also called myostatin
T2 sequence (looked up): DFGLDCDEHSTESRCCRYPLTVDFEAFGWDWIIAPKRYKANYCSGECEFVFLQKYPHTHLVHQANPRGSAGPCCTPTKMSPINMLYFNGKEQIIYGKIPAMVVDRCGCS

T3: BMP6 (UniProt P22004 382-513, limits assumed)
T3 sequence (looked up): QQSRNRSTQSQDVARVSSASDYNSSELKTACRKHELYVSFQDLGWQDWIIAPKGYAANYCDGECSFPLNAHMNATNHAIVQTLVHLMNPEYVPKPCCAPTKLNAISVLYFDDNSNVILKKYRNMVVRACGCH

T4: GDF11 (UniProt O95390 299-407)
T4 construct: also called BMP11
T4 sequence (looked up): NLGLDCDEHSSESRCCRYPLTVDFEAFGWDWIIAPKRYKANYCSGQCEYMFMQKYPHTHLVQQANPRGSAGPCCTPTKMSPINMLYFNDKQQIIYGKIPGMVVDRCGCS

T5: activin B (UniProt P09529 293-407)
T5 sequence (looked up): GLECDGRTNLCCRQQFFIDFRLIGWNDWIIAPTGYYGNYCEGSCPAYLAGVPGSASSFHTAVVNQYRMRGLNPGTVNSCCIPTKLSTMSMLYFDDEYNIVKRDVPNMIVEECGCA

T6: BMP10 (UniProt O95393 317-424)
T6 sequence (looked up): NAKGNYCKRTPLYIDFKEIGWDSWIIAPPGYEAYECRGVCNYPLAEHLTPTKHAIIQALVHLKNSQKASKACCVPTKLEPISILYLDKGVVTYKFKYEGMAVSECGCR

T7: BMP5 (UniProt P22003 317-454, limits assumed)
T7 sequence (looked up): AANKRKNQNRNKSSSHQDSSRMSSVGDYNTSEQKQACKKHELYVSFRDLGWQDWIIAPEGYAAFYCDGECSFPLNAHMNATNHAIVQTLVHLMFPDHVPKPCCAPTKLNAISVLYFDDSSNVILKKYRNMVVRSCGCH

T8: GDF3 (UniProt Q9NR23 251-364)
T8 sequence (looked up): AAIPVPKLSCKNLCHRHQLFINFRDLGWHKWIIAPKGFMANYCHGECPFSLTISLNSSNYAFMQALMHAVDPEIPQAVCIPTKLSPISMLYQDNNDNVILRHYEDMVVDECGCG

T9: TGFβ2 (human, UniProt P61812 303-414)
T9 construct: Human (PeproTech) is stated for the A549 reporter assay; also called TGF-beta2
T9 sequence (looked up): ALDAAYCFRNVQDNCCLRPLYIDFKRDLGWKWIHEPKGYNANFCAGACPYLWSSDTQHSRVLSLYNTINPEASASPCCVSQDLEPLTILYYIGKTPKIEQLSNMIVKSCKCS

T10: BMP15 (UniProt O95972 268-392)
T10 construct: also called GDF9b
T10 sequence (looked up): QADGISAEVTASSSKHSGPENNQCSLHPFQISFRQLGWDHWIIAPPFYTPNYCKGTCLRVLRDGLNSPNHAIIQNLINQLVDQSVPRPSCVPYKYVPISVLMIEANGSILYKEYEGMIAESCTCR

T11: BMP7 (UniProt P18075 293-431)
T11 sequence (looked up): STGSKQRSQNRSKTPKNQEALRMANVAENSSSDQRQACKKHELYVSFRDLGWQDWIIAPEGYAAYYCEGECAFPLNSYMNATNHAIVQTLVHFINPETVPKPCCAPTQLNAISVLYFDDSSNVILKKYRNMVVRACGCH

B1: BMP9 (ligand, UniProt Q9UK05 320-429, looked up)
chain: SAGAGSHCQKTSLRVNFEDIGWDSWIIAPKEYEAYECKGGCFFPLADDVTPTKHAIVQTLVHLKFPTKVGKACCVPTKLSPISVLYKDDMGVPTLKYHYEGMSVAECGCR
notes: also called GDF2
B2: ALK7-Fc homodimer (Fc fusion, UniProt Q8NER5 22-113, looked up, not shown: a dimerising Fc or GST)
chain: LSPGLKCVCLLCDSSNFTCQTEGACWASVMLTNGKEQVIKSCVSLPELNAQVFCHSSNNVTKTECCFTDFCNNITLHLPTASPNAPKLGPME
notes: extracellular domain
B3: TGFβRIISHORT-Fc homodimer (Fc fusion)
chain: TIPPHVQKSVNNDMIVTDNNGAVKFPQLCKFCDVRFSTCDNQKSCMSNCSITSICEKPQEVCVAVWRKNDENITLETVCHDPKLPYHDFILEDAASPKCIMKEKKKPGETFFMCSCSSDECNDNIIFSEEYNTSNPD
B4: activin A (ligand, UniProt P08476 311-426, looked up)
chain: GLECDGKVNICCKKQFFVSFKDIGWNDWIIAPSGYHANYCEGECPSHIAGTSGSSLSFHSTVINHYRMRGHSPFANLKSCCVPTKLRPMSMLYYDDGQNIIKKDIQNMIVEECGCS
B5: BMPRII-Fc homodimer (Fc fusion, UniProt Q13873 27-150, looked up, not shown: a dimerising Fc or GST)
chain: SQNQERLCAFKDPYQQDLGIGESRISHENGTILCSKGSTCYGLWEKSKGDINLVKQGCWSHIGDPQECHYEECVVTTTPPSIQNGTYRFCCCSTDLCNVNFTENFPPPDTTPLSPPHSFNRDET
notes: extracellular domain

Key:
[1] = biological target: T12, ALK3-Fc homodimer (UniProt P36894 24-152); assay: Biacore SPR
T12 construct: extracellular domain
Protocol: (§1) Ligands were injected and allowed to flow over the captured receptor protein.

[2] = biological target: T1, ActRIIB-Fc homodimer; assay: Biacore SPR
Protocol: as §1

[3] = biological target: T13, ActRIIA-Fc homodimer (UniProt P27037 20-135); assay: Biacore SPR; kinetics indeterminate (transient)
T13 construct: extracellular domain
Protocol: as §1

[4] = biological target: T1, ActRIIB-Fc homodimer; assay: Biacore SPR; remark: listed apart in the source
Protocol: as §1

[5] = biological target: B5; assay: Biacore SPR
Protocol: as §1

[6] = biological target: B5; assay: Biacore SPR; remark: listed apart in the source
Protocol: as §1

[7] = biological target: T1, ActRIIB-Fc homodimer; assay: Biacore SPR; remark: listed apart in the source
Protocol: as §1

[8] = biological target: B5; assay: Biacore SPR; remark: listed apart in the source
Protocol: (§2) A Biacore™-based binding assay was used to compare ligand binding selectivity of the BMPRII-Fc:ALK2-Fc heterodimeric complex described above with that of BMPRII-Fc and ALK2-Fc homodimeric complexes. […] Ligands were injected and allowed to flow over the captured receptor protein.

[9] = biological target: T1, ActRIIB-Fc homodimer; assay: Biacore SPR; remark: listed apart in the source
Protocol: as §1

[10] = biological target: T1, ActRIIB-Fc homodimer; assay: Biacore SPR; remark: listed apart in the source
Protocol: as §1

[11] = biological target: B5; assay: Biacore SPR; remark: listed apart in the source
Protocol: as §1

[12] = biological target: T2, GDF8; assay: Biacore SPR
Protocol: as §1

[13] = biological target: T3, BMP6; assay: Biacore SPR
Protocol: as §1

[14] = biological target: T4, GDF11; assay: Biacore SPR
Protocol: as §1

[15] = biological target: T5, activin B; assay: Biacore SPR
Protocol: as §1

[16] = biological target: T6, BMP10; assay: Biacore SPR
Protocol: as §1

[17] = biological target: T7, BMP5; assay: Biacore SPR
Protocol: as §1

[18] = biological target: B1; assay: Biacore SPR
Protocol: as §1

[19] = biological target: B4; assay: Biacore SPR
Protocol: as §1

[20] = biological target: T8, GDF3; assay: Biacore SPR
Protocol: as §1

[21] = biological target: T9, TGFβ2; assay: Biacore SPR
Protocol: (§3) The heteromeric or homomeric protein complexes were independently captured onto the system using an anti-Fc antibody. Ligands were injected and allowed to flow over the captured receptor protein.

[22] = biological target: T14, TGFβ1 (human, UniProt P01137 279-390); assay: Biacore SPR
T14 construct: Human (PeproTech) is stated for the A549 reporter assay; also called TGF-beta1
Protocol: as §3

[23] = biological target: T9, TGFβ2; assay: cell-based or functional assay
[24] = biological target: T14, TGFβ1; assay: cell-based or functional assay
[25] = biological target: T9, TGFβ2; assay: Biacore SPR; kinetics indeterminate (transient)
Protocol: (§4) A Biacore™-based binding assay was used to compare ligand binding selectivity of the TGFβRIISHORT-Fc:ALK1-Fc heterodimeric complex described above with that of TGFβRIISHORT-Fc and ALK1-Fc homodimeric complexes. […] Ligands were injected and allowed to flow over the captured receptor protein.

[26] = biological target: T14, TGFβ1; assay: Biacore SPR; remark: listed apart in the source
Protocol: as §4

[27] = biological target: B5; assay: Biacore SPR; kinetics indeterminate (transient)
Protocol: as §1

[28] = biological target: T10, BMP15; assay: Biacore SPR
Protocol: as §1

[29] = biological target: T10, BMP15; assay: Biacore SPR; remark: listed apart in the source
Protocol: as §1

[30] = biological target: T10, BMP15; assay: Biacore SPR; remark: listed apart in the source
Protocol: as §2

[31] = biological target: T7, BMP5; assay: Biacore SPR; remark: listed apart in the source
Protocol: as §2

[32] = biological target: T11, BMP7; assay: Biacore SPR; kinetics indeterminate (transient)
[33] = biological target: T3, BMP6; assay: Biacore SPR; kinetics indeterminate (transient)
[34] = biological target: T11, BMP7; assay: Biacore SPR; kinetics indeterminate (transient); remark: listed apart in the source
Protocol: as §2

[35] = biological target: T10, BMP15; assay: Biacore SPR; remark: listed apart in the source
Protocol: as §1

T14 sequence (P01137 279-390 limits assumed): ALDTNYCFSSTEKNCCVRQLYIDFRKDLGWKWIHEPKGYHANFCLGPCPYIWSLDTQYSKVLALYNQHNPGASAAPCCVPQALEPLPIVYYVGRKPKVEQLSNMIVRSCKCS
T12 sequence (P36894 24-152): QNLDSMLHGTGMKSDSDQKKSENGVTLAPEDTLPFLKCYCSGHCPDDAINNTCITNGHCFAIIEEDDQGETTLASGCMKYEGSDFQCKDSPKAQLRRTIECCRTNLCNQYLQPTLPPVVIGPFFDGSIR
T13 sequence (P27037 20-135): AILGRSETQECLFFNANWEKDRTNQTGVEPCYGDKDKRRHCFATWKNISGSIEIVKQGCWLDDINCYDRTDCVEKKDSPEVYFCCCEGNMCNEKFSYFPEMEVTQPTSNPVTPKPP

## B1
[1]
  binding result: no binding
[2]
  Kd: 0.034 nM
  koff: 0.0013 s⁻¹
  kon: 3.9e+07 M⁻¹ s⁻¹
[3]
  Kd: > 10 nM
[4]
  Kd: 0.077 nM
  koff: 0.0011 s⁻¹
  kon: 1.4e+07 M⁻¹ s⁻¹
[5]
  Kd: 2.1 nM
  koff: 0.026 s⁻¹
  kon: 1.2e+07 M⁻¹ s⁻¹
[6]
  Kd: 2.1 nM
  koff: 0.026 s⁻¹
  kon: 1.2e+07 M⁻¹ s⁻¹
[7]
  Kd: 0.034 nM
  koff: 0.0013 s⁻¹
  kon: 3.9e+07 M⁻¹ s⁻¹
[8]
  Kd: 1.6 nM
  koff: 0.073 s⁻¹
  kon: 4.5e+07 M⁻¹ s⁻¹
[9]
  Kd: 0.034 nM
  koff: 0.0013 s⁻¹
  kon: 3.9e+07 M⁻¹ s⁻¹
[10]
  Kd: 0.01 nM
  koff: 0.0012 s⁻¹
  kon: 1.2e+08 M⁻¹ s⁻¹
[11]
  Kd: 2.1 nM
  koff: 0.026 s⁻¹
  kon: 1.2e+07 M⁻¹ s⁻¹

## B2
[12]
  binding result: no binding
[13]
  binding result: no binding
[14]
  binding result: no binding
[15]
  binding result: no binding
[16]
  binding result: no binding
[17]
  binding result: no binding
[18]
  binding result: no binding
[19]
  binding result: no binding
[20]
  binding result: no binding

## B3
[21]
  Kd: 11 nM
[22]
  Kd: 0.02 nM
[23]
  IC50 (pM), CAGA12-luciferase reporter gene assay in A549 cells, TGFβ2 at 480 pg/mL: > 10000 pM
[24]
  IC50 (pM), CAGA12-luciferase reporter gene assay in A549 cells, TGFβ1 at 640 pg/mL: 90 pM
[25]
  Kd: > 44 nM
[26]
  Kd: 0.025 nM

## B4
[1]
  binding result: no binding
[2]
  Kd: 0.011 nM
  koff: 0.00014 s⁻¹
  kon: 1.3e+07 M⁻¹ s⁻¹
[27]
  Kd: > 43 nM
[4]
  Kd: 0.019 nM
  koff: 0.00023 s⁻¹
  kon: 1.2e+07 M⁻¹ s⁻¹
[7]
  Kd: 0.015 nM
  koff: 0.00017 s⁻¹
  kon: 1.2e+07 M⁻¹ s⁻¹
[9]
  Kd: 0.019 nM
  koff: 0.00023 s⁻¹
  kon: 1.2e+07 M⁻¹ s⁻¹
[10]
  Kd: 0.011 nM
  koff: 0.00014 s⁻¹
  kon: 1.3e+07 M⁻¹ s⁻¹

## B5
[28]
  Kd: 0.29 nM
  koff: 0.0028 s⁻¹
  kon: 9.9e+06 M⁻¹ s⁻¹
[29]
  Kd: 0.29 nM
  koff: 0.0028 s⁻¹
  kon: 9.9e+06 M⁻¹ s⁻¹
[30]
  Kd: 0.72 nM
  koff: 0.0042 s⁻¹
  kon: 5.8e+06 M⁻¹ s⁻¹
[31]
  Kd: 9.9 nM
  koff: 0.019 s⁻¹
  kon: 1.9e+06 M⁻¹ s⁻¹
[32]
  Kd: > 38 nM
[33]
  Kd: > 8.9 nM
[34]
  Kd: > 93 nM
[35]
  Kd: 0.29 nM
  koff: 0.0028 s⁻¹
  kon: 9.9e+06 M⁻¹ s⁻¹
